Columns and labels:
[1] = molecular target: FLAME-1 (in vitro translated, 35S-labeled)
[2] = molecular target: FLAME-1-D341A (in vitro translated, 35S-labeled)

B1: caspase-8 (Mch5), purified recombinant (protein)
chain: SESQTLDKVYQMKSKPRGYCLIINNHNFAKAREKVPKLHSIRDRNGTHLDAGALTTTFEELHFEIKPHDDCTVEQIYEILKIYQLMDHSNMDCFICCILSHGDKGIIYGTDGQEAPIYELTSQFTGLKCPSLAGKPKVFFIQACQGDNYQKGIPVETDSEEQPYLEMDLSSPQTRYIPDEADFLLGMATVNNCVSYRNPAEGTWYIQSLCQSLRERCPRGDDILTILTEVNYEVSNKDDKKNMGKQMPQPTFTLRKKLVFPSD
[1]
  cleavage of 35S-labeled FLAME-1 into p39 and p12 (SDS-PAGE, autoradiography): in vitro translated FLAME-1 can be cleaved by several caspases including CPP32, Mch2, Mch3, Mch4, MchS and ICH-1 to generate two fragments (p39 and pl2)
[2]
  cleavage of 35S-labeled FLAME-1-D341A (SDS-PAGE, autoradiography): a D to A mutation in this site prevents these caspases from cleaving FLAME-1

B2: caspase-3 (CPP32), purified recombinant (protein)
chain: SGISLDNSYKMDYPEMGLCIIINNKNFHKSTGMTSRSGTDVDAANLRETFRNLKYEVRNKNDLTREEIVELMRDVSKEDHSKRSSFVCVLLSHGEEGIIFGTNGPVDLKKITNFFRGDRCRSLTGKPKLFIIQACRGTELDCGIETDSGVDDDMACHKIPVEADFLYAYSTAPGYYSWRNSKDGSWFIQSLCAMLKQYADKLEFMHILTRVNRKVATEFESFSFDATFHAKKQIPCIVSMLTKELYFYH
[1]
  cleavage of 35S-labeled FLAME-1 into p39 and p12 (SDS-PAGE, autoradiography): in vitro translated FLAME-1 can be cleaved by several caspases including CPP32, Mch2, Mch3, Mch4, MchS and ICH-1 to generate two fragments (p39 and pl2)

B3: caspase-7 (Mch3), purified recombinant (protein)
chain: AKPDRSSFVPSLFSKKKKNVTMRSIKTTRDRVPTYQYNMNFEKLGKCIIINNKNFDKVTGMGVRNGTDKDAEALFKCFRSLGFDVIVYNDCSCAKMQDLLKKASEEDHTNAACFACILLSHGEENVIYGKDGVTPIKDLTAHFRGDRCKTLLEKPKLFFIQACRGTELDDGIQADSGPINDTDANPRYKIPVEADFLFAYSTVPGYYSWRSPGRGSWFVQALCSILEEHGKDLEIMQILTRVNDRVARHFESQSDDPHFHEKKQIPCVVSMLTKELYFSQ
[1]
  cleavage of 35S-labeled FLAME-1 into p39 and p12 (SDS-PAGE, autoradiography): in vitro translated FLAME-1 can be cleaved by several caspases including CPP32, Mch2, Mch3, Mch4, MchS and ICH-1 to generate two fragments (p39 and pl2)

B4: caspase-6 (Mch2), purified recombinant (protein)
chain: AFYKREMFDPAEKYKMDHRRRGIALIFNHERFFWHLTLPERRGTCADRDNLTRRFSDLGFEVKCFNDLKAEELLLKIHEVSTVSHADADCFVCVFLSHGEGNHIYAYDAKIEIQTLTGLFKGDKCHSLVGKPKIFIIQACRGNQHDVPVIPLDVVDNQTEKLDTNITEVDAASVYTLPAGADFLMCYSVAEGYYSHRETVNGSWYIQDLCEMLGKYGSSLEFTELLTLVNRKVSQRRVDFCKDPSAIGKKQVPCFASMLTKKLHFFPKSN
[1]
  cleavage of 35S-labeled FLAME-1 into p39 and p12 (SDS-PAGE, autoradiography): in vitro translated FLAME-1 can be cleaved by several caspases including CPP32, Mch2, Mch3, Mch4, MchS and ICH-1 to generate two fragments (p39 and pl2)
[2]
  cleavage of 35S-labeled FLAME-1-D341A (SDS-PAGE, autoradiography): a D to A mutation in this site prevents these caspases from cleaving FLAME-1

B5: caspase-2 (ICH-1), purified recombinant (protein)
chain: GPVCLQVKPCTPEFYQTHFQLAYRLQSRPRGLALVLSNVHFTGEKELEFRSGGDVDHSTLVTLFKLLGYDVHVLCDQTAQEMQEKLQNFAQLPAHRVTDSCIVALLSHGVEGAIYGVDGKLLQLQEVFQLFDNANCPSLQNKPKMFFIQACRGDETDRGVDQQDGKNHAGSPGCEESDAGKEKLPKMRLPTRSDMICGYACLKGTAAMRNTKRGSWYIEALAQVFSERACDMHVADMLVKVNALIKDREGYAPGTEFHRCKEMSEYCSTLCRHLYLFPGHPPT
[1]
  cleavage of 35S-labeled FLAME-1 into p39 and p12 (SDS-PAGE, autoradiography): in vitro translated FLAME-1 can be cleaved by several caspases including CPP32, Mch2, Mch3, Mch4, MchS and ICH-1 to generate two fragments (p39 and pl2)
[2]
  cleavage of 35S-labeled FLAME-1-D341A (SDS-PAGE, autoradiography): a D to A mutation in this site prevents these caspases from cleaving FLAME-1

B6: caspase-10 (Mch4), purified recombinant (protein)
chain: VKTFLEALPRAAVYRMNRNHRGLCVIVNNHSFTSLKDRQGTHKDAEILSHVFQWLGFTVHIHNNVTKVEMEMVLQKQKCNPAHADGDCFVFCILTHGRFGAVYSSDEALIPIREIMSHFTALQCPRLAEKPKLFFIQACQGEEIQPSVSIEADALNPEQAPTSLQDSIPAEADFLLGLATVPGYVSFRHVEEGSWYIQSLCNHLKKLVPRHEDILSILTAVNDDVSRRVDKQGTKKQMPQPAFTLRKKLVFPVPLDALSL
[1]
  cleavage of 35S-labeled FLAME-1 into p39 and p12 (SDS-PAGE, autoradiography): in vitro translated FLAME-1 can be cleaved by several caspases including CPP32, Mch2, Mch3, Mch4, MchS and ICH-1 to generate two fragments (p39 and pl2)
[2]
  cleavage of 35S-labeled FLAME-1-D341A (SDS-PAGE, autoradiography): a D to A mutation in this site prevents these caspases from cleaving FLAME-1
